The target of assay [1] is T1, human ILT2 extracellular and transmembrane domains expressed on CHO cells (human, UniProt Q8NHL6 24-482, limits assumed).
T1 construct: domain: extracellular and transmembrane domains; which one is told under assay; also called CHO cells expressing human ILT2 (relatively low or relatively high level); CHO-ILT2 cells
Kind of assay: flow cytometry, CHO cells with high human ILT2. On the procedure: For the antibody binding assay, the cells were seeded in a 96-well U-bottom tissue culture plate at a density of 3×10⁵ cells per well in 25 μL of PBS supplemented with 0.5% BSA, 1 mM EDTA and 0.05% sodium azide (FACS Buffer). The cells were incubated for 30 minutes at 4° C. with […] of a series dilution of anti-ILT2 antibodies or isotype control at concentrations from 10 μg/mL to 2.4 ng/mL in FACS Buffer.
After a 30-minute incubation in the dark at 4° C., the cells were washed twice with cold FACS Buffer, and the cells were analyzed by flow cytometry (BD LSR Fortessa Flow Cytometer). CHO-ILT2 cells were identified and MFI was calculated as above.
(In general: In flow cytometry, cells or beads pass a laser one at a time.)

The target of assay [2] is T2, ECD-His tagged human ILT2 haplotype PE01 (human, UniProt Q8NHL6 24-458).
T2 construct: also called Human ILT2 PE01 ECD; LILRB1/ILT2 PE01; not shown: His tag
Kind of assay: SPR, ILT2 PE01 ECD-His, average of two measurements. On the procedure:
(§1) Briefly, SPR experiments were performed using a Biacore T200 instrument, and the association rate (Kₐ), dissociation rate (Kd), and dissociation constant (KD) were calculated from each experiment using a 1:1 binding model with Biacore™ T200 Evaluation Software. Capture of antibodies from the Human Fab Capture kit (28958325, GE Healthcare) to the Series S CM5 sensor chip (29149603, GE Healthcare) was performed using the immobilization wizard for amine coupling from the Biacore™ control panel and following the manufacturer's recommendations included with the kit.
Variants of irrelevant antibody VRC01 (with IgG1, IgG1 N297A, IgG4 S228P, IgG2, or IgG2 C127S constant regions) were used as negative isotype controls. The binding kinetics are shown in Table 5 as an average from two independent measurements.
On the technique in general: SPR reads the build-up and loss of mass on a sensor chip optically.

The target of assay [3] is T2, ECD-His tagged human ILT2 haplotype PE01. Description: SPR, captured antibody, ILT2 ECD-His analyte. On the procedure: (§2) The binding affinity of anti-ILT2 antibody variants with IgG1 N297A constant regions to ECD-His tagged human ILT2 haplotypes PE01, PE02, PE03 (see Table 1) was assessed by surface plasmon resonance (SPR).
as §1
(§3) Approximately 3 μg/mL of tested anti-ILT2 antibodies and controls diluted in a running buffer (10 mM HEPES, 150 mM NaCl, 3 mM EDTA, and 0.05% surfactant P20) were captured in individual flow cells of previously prepared anti Human Fab CM5 chip, keeping a single flow cell as a reference. Antibodies were captured using a 30 sec injection at a flow rate of 10 μL/min to reach about 150 resonance units (Rus). Human ILT2 ECD PE01 (diluted in the running buffer at the concentration of 30, 10, 3.3, 1.11, 0.37, 0.12 nM), and human ILT2 ECD PE02 and PE03 (diluted in the running buffer at the concentration of 33.3, 11.1, 3.7, 1.2, 0.41, 0.14 nM), were flowed over the chip surface at a flow rate of 30 μL/min with a 3-min association phase and a 10-min dissociation phase. The sensor chip was regenerated between cycles with a double 30-sec injection of 10 mM glycine, pH 2.1 at 30 μL/min followed by stabilization period of 60s. Sensorgrams were evaluated and fit to a simple Langmuir 1:1 interaction model using the global data analysis option of BIAevaluation 3.1 software. Data quality was verified by visually inspecting deviations and curve fitting, and by evaluating the parameters of Rₘₐₓ, Chi2, and Tc.

The target of assay [4] is T3, ECD-His tagged human ILT2 haplotype PE02 (human, UniProt Q8NHL6 24-458).
T3 construct: also called Human ILT2 PE02 ECD; not shown: His tag
Kind of assay: SPR, captured antibody, ILT2 ECD-His analyte. On the procedure: as §2, §1, §3

Assay [5] deals with T4, ECD-His tagged human ILT2 haplotype PE03 (human, UniProt Q8NHL6 24-458).
T4 construct: also called Human ILT2 PE03 ECD (Sino biological, 16014-H08H); not shown: His tag
Description: SPR, captured antibody, ILT2 ECD-His analyte. Here is the method:
as §2, §1, §3

The target in assay [6] is T1, human ILT2 extracellular and …. Kind of assay: flow cytometry, CHO cells with low human ILT2. Here is the method:
For the antibody binding assay, the cells were seeded in a 96-well U-bottom tissue culture plate at a density of 3×10⁵ cells per well in 25 μL of PBS supplemented with 0.5% BSA, 1 mM EDTA and 0.05% sodium azide (FACS Buffer). The cells were incubated for 30 minutes at 4° C. with 25 μL of a series dilution of anti-ILT2 antibodies or isotype control, at final concentrations ranging from 10 μg/mL to 0.2 ng/mL in FACS Buffer.
After a 30-minute incubation in the dark at 4° C., the cells were washed twice with cold FACS Buffer, and the cells were analyzed by flow cytometry (BD LSR Fortessa Flow Cytometer). CHO cells were identified using a plot of forward scatter-area (FSC-A) versus side scatter area (SSC-A) and another plot of FSC-A versus forward scatter-height (FSC-H) for selection of single cells. Samples were analyzed by sequentially gating on the single cell population and plotting histograms representing the fluorescence in the PE channel. For each sample, mean fluorescence intensity (MFI) was calculated, and the data were plotted by GraphPad Prism software.

Assay [7] concerns the target T5, full-length ILT2 expressed on Jurkat cells (human, UniProt Q8NHL6 24-650).
T5 construct: whole, on cells; The Jurkat line also carries FcgRIIIa and an NFAT-luciferase reporter (Promega/G7102); also called Jurkat cells expressing human ILT2; ILT2-expressing Jurkat reporter cells
Description: flow cytometry, Jurkat cells expressing human ILT2.

T2 sequence (Q8NHL6 24-458): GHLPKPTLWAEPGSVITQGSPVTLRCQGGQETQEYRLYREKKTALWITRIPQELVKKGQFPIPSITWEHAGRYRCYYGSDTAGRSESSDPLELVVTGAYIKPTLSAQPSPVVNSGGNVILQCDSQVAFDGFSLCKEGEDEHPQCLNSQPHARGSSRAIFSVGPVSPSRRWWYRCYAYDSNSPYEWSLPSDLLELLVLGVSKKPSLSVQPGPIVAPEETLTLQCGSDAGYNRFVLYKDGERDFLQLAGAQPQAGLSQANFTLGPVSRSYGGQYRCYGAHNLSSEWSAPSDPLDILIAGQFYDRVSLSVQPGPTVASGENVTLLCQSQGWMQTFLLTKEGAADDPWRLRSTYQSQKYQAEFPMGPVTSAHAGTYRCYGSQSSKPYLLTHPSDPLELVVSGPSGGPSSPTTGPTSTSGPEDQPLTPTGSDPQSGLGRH
T3 sequence (Q8NHL6 other isoform, or with tags, fused parts or gaps): as the sequence (Q8NHL6 24-458) above, with L45P, A70T, I119T, S132I counted along it
T4 sequence (Q8NHL6 other isoform, or with tags, fused parts or gaps): as the sequence (Q8NHL6 24-458) above, with L45P, I119T, S132I counted along it
T1 sequence (Q8NHL6 24-482 limits assumed): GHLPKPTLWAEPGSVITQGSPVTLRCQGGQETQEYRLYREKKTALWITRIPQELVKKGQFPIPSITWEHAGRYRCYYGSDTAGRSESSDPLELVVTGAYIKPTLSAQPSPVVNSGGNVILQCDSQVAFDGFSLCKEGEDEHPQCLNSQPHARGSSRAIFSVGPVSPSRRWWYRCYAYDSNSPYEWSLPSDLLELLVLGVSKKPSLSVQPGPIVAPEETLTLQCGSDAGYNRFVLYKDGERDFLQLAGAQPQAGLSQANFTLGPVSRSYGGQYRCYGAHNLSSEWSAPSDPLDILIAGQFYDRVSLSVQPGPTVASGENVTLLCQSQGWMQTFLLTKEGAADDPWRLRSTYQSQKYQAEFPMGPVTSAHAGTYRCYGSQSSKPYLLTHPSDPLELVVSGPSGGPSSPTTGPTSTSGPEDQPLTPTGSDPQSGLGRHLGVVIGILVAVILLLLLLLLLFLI
T5 sequence (Q8NHL6 24-650): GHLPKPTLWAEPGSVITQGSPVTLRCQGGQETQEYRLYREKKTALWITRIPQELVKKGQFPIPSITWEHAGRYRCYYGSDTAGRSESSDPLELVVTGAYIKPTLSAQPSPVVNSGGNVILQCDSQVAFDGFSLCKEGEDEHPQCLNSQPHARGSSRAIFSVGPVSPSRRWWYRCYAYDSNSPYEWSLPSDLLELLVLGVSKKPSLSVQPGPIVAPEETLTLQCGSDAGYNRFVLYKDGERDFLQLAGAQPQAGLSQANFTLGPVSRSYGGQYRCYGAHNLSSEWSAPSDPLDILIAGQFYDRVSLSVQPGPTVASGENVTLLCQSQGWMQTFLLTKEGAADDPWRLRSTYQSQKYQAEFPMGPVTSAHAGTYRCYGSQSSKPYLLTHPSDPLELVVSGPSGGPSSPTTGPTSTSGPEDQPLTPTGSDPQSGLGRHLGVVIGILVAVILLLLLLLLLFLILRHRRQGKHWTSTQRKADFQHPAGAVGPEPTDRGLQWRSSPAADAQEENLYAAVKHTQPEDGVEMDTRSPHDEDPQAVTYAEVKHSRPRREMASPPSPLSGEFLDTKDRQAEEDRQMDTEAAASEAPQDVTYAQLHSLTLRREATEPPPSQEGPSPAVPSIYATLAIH

B1: BA217 (antibody, human IgG2, kappa)
heavy: QVQLVQSGAEVKKPGASVKVSCKASGYTFNRYYMHWVRQAPGQGLEWMGWINPYTGGTNYAQKFQGRVTMTRDTSISTAYMELSRLRSDDTAVYYCASKQPSSDYWGQGTLVTVSSASTKGPSVFPLAPCSRSTSESTAALGCLVKDYFPEPVTVSWNSGALTSGVHTFPAVLQSSGLYSLSSVVTVPSSNFGTQTYTCNVDHKPSNTKVDKTVERKCCVECPPCPAPPVAGPSVFLFPPKPKDTLMISRTPEVTCVVVDVSHEDPEVQFNWYVDGVEVHNAKTKPREEQFNSTFRVVSVLTVVHQDWLNGKEYKCKVSNKGLPAPIEKTISKTKGQPREPQVYTLPPSREEMTKNQVSLTCLVKGFYPSDIAVEWESNGQPENNYKTTPPMLDSDGSFFLYSKLTVDKSRWQQGNVFSCSVMHEALHNHYTQKSLSLSPGK
light: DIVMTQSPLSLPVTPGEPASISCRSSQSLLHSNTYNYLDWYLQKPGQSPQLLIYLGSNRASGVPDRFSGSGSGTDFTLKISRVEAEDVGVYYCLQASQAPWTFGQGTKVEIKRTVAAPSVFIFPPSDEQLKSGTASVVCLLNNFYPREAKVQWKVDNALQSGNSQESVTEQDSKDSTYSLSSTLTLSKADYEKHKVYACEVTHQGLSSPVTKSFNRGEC
As to B1, in assay [1], the AUC is 264000 and a half-maximal response (EC50) required 0.248 µg/mL. Besides, in assay [2], the Kd turned out to be 0.17 nM, the koff stood at 5.4e-05 s⁻¹ and the kon came to 340000 M⁻¹ s⁻¹.

B2: BA219 (antibody, human IgG2, kappa)
heavy: QVQLVQSGAEVKKPGASVKVSCKASGYTFNRYYMHWVRQAPGQGLEWMGWINPYTGGTNYAQKFQGRVTMTRDTSISTAYMELSRLRSDDTAVYYCASKQPSSDYWGQGTLVTVSSASTKGPSVFPLAPSSRSTSESTAALGCLVKDYFPEPVTVSWNSGALTSGVHTFPAVLQSSGLYSLSSVVTVPSSNFGTQTYTCNVDHKPSNTKVDKTVERKCCVECPPCPAPPVAGPSVFLFPPKPKDTLMISRTPEVTCVVVDVSHEDPEVQFNWYVDGVEVHNAKTKPREEQFNSTFRVVSVLTVVHQDWLNGKEYKCKVSNKGLPAPIEKTISKTKGQPREPQVYTLPPSREEMTKNQVSLTCLVKGFYPSDIAVEWESNGQPENNYKTTPPMLDSDGSFFLYSKLTVDKSRWQQGNVFSCSVMHEALHNHYTQKSLSLSPGK
light: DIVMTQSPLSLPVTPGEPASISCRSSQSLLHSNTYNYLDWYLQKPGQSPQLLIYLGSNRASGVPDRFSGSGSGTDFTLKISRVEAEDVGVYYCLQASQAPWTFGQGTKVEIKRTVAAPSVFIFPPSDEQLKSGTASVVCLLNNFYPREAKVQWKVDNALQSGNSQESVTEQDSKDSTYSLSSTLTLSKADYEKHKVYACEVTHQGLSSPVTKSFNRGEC
Turning to B2, in assay [1], the AUC amounted to 307000 and the EC50 was determined as 0.183 µg/mL. In assay [2], the Kd came to 0.14 nM, the koff was 4.8e-05 s⁻¹ and the kon was determined as 350000 M⁻¹ s⁻¹.

B3: BA246 (antibody, human IgG2, kappa)
heavy: QVQLVQSGAEVKKPGASVKVSCKASGYTFNRYYMHWVRQAPGQGLEWMGWINPYTGGTNYAQKFQGRVTMTRDTSISTAYMELSRLRSDDTAVYYCASKQPSSDYWGQGTLVTVSSASTKGPSVFPLAPCSRSTSESTAALGCLVKDYFPEPVTVSWNSGALTSGVHTFPAVLQSSGLYSLSSVVTVPSSNFGTQTYTCNVDHKPSNTKVDKTVERKCCVECPPCPAPPVAGPSVFLFPPKPKDTLMISRTPEVTCVVVDVSHEDPEVQFNWYVDGVEVHNAKTKPREEQFNSTFRVVSVLTVVHQDWLNGKEYKCKVSNKGLPAPIEKTISKTKGQPREPQVYTLPPSREEMTKNQVSLTCLVKGFYPSDIAVEWESNGQPENNYKTTPPMLDSDGSFFLYSKLTVDKSRWQQGNVFSCSVMHEALHNHYTQKSLSLSPGK
light: not shown
As to B3, in assay [2], the Kd is 0.23 nM, the koff is 7.4e-05 s⁻¹ and the kon was 330000 M⁻¹ s⁻¹.

B4: BA220 (antibody, human IgG2, kappa)
heavy: QVQLVQSGAEVKKPGASVKVSCKASGYTFNRYYMHWVRQAPGQGLEWMGWINPYTGGTNYAQKFQGRVTMTRDTSISTAYMELSRLRSDDTAVYYCASKQPSSDYWGQGTLVTVSSASTKGPSVFPLAPSSRSTSESTAALGCLVKDYFPEPVTVSWNSGALTSGVHTFPAVLQSSGLYSLSSVVTVPSSNFGTQTYTCNVDHKPSNTKVDKTVERKCCVECPPCPAPPVAGPSVFLFPPKPKDTLMISRTPEVTCVVVDVSHEDPEVQFNWYVDGVEVHNAKTKPREEQFNSTFRVVSVLTVVHQDWLNGKEYKCKVSNKGLPAPIEKTISKTKGQPREPQVYTLPPSREEMTKNQVSLTCLVKGFYPSDIAVEWESNGQPENNYKTTPPMLDSDGSFFLYSKLTVDKSRWQQGNVFSCSVMHEALHNHYTQKSLSLSPGK
light: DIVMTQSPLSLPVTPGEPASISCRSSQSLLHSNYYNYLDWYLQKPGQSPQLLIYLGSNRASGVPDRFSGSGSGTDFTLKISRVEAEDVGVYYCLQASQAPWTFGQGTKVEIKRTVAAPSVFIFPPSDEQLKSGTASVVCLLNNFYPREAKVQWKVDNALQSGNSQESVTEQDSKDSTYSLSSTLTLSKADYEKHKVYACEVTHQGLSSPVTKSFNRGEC
With B4, in assay [1], the AUC came out at 305000 and the EC50 stood at 0.282 µg/mL. In assay [2], this molecule displayed a Kd of 0.14 nM, a koff of 5.7e-05 s⁻¹ and a kon of 420000 M⁻¹ s⁻¹.

B5: BA218 (antibody, human IgG2, kappa)
heavy: QVQLVQSGAEVKKPGASVKVSCKASGYTFNRYYMHWVRQAPGQGLEWMGWINPYTGGTNYAQKFQGRVTMTRDTSISTAYMELSRLRSDDTAVYYCASKQPSSDYWGQGTLVTVSSASTKGPSVFPLAPCSRSTSESTAALGCLVKDYFPEPVTVSWNSGALTSGVHTFPAVLQSSGLYSLSSVVTVPSSNFGTQTYTCNVDHKPSNTKVDKTVERKCCVECPPCPAPPVAGPSVFLFPPKPKDTLMISRTPEVTCVVVDVSHEDPEVQFNWYVDGVEVHNAKTKPREEQFNSTFRVVSVLTVVHQDWLNGKEYKCKVSNKGLPAPIEKTISKTKGQPREPQVYTLPPSREEMTKNQVSLTCLVKGFYPSDIAVEWESNGQPENNYKTTPPMLDSDGSFFLYSKLTVDKSRWQQGNVFSCSVMHEALHNHYTQKSLSLSPGK
light: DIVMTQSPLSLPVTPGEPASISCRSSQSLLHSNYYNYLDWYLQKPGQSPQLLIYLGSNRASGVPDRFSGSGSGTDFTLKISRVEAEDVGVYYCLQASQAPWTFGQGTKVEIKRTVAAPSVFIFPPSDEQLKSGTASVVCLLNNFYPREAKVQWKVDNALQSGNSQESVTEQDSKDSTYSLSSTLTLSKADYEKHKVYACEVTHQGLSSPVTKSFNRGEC
Consider B5, for which, in assay [1], the AUC came out at 295000 and the EC50 came to 0.227 µg/mL. For the same molecule, in assay [2], the Kd is 0.19 nM, the koff was 7e-05 s⁻¹ and the kon turned out to be 390000 M⁻¹ s⁻¹.

B6: BA247 (antibody, human IgG2, kappa)
heavy: QVQLVQSGAEVKKPGASVKVSCKASGYTFNRYYMHWVRQAPGQGLEWMGWINPYTGGTNYAQKFQGRVTMTRDTSISTAYMELSRLRSDDTAVYYCASKQPSSDYWGQGTLVTVSSASTKGPSVFPLAPSSRSTSESTAALGCLVKDYFPEPVTVSWNSGALTSGVHTFPAVLQSSGLYSLSSVVTVPSSNFGTQTYTCNVDHKPSNTKVDKTVERKCCVECPPCPAPPVAGPSVFLFPPKPKDTLMISRTPEVTCVVVDVSHEDPEVQFNWYVDGVEVHNAKTKPREEQFNSTFRVVSVLTVVHQDWLNGKEYKCKVSNKGLPAPIEKTISKTKGQPREPQVYTLPPSREEMTKNQVSLTCLVKGFYPSDIAVEWESNGQPENNYKTTPPMLDSDGSFFLYSKLTVDKSRWQQGNVFSCSVMHEALHNHYTQKSLSLSPGK
light: not shown
As for B6, in assay [2], the affinity, expressed as Kd, was 0.31 nM; the koff was determined as 9.7e-05 s⁻¹; the kon was 330000 M⁻¹ s⁻¹.

B7: BA212 (antibody, human IgG1, kappa, N297A, V domains shown)
VH: QVQLVQSGAEVKKPGASVKVSCKASGYTFNRYYMHWVRQAPGQGLEWMGWINPYTGGTNYAQKFQGRVTMTRDTSISTAYMELSRLRSDDTAVYYCASKQPSSDYWGQGTLVTVSS
VL: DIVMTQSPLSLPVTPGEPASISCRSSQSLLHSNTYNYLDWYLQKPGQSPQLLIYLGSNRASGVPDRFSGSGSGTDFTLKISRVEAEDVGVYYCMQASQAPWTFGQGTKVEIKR
In assay [3], B7 had a Kd of 0.089 nM, a koff of 3.3e-06 s⁻¹ and a kon of 37000 M⁻¹ s⁻¹. In assay [4], this molecule showed a Kd of 0.783 nM, a koff of 0.00021 s⁻¹ and a kon of 270000 M⁻¹ s⁻¹. Also, in assay [5], the Kd amounted to 0.875 nM, the koff stood at 0.0004 s⁻¹ and the kon came to 460000 M⁻¹ s⁻¹. Besides, in assay [6], the AUC was determined as 15100 and it took 0.087 µg/mL to reach a half-maximal effect (EC50). In assay [7], this molecule had an AUC of 222000 and a concentration giving a half-maximal response (EC50) of 0.057 µg/mL.

What is called EC50 is the concentration needed to bring the measured effect to its halfway point. Read a low EC50 as an effect from little substance. As usually defined, the Kd is the equilibrium constant for the complex coming apart. Low readings indicate tighter binding, high ones weaker binding. A word on the koff: it is the rate constant with which the complex falls apart. A higher koff goes with fast dissociation. By kon is commonly meant the rate constant with which the complex forms.
